From publication PMC3181058 come the findings set out here.

The assay concerns the target Protein A (Staphylococcus aureus) (UniProt P38507). In words: ITC.

Take “Nanoparticle-conjugated trastuzumab (CS-DOX-mAb) (antibody)”: the KA, first binding site turned out to be 3.48e+06 M⁻¹; the N, first binding site is 1.65; the dH, first binding site was -93.9 kcal/mol.
Broadly, the stoichiometry N is the number of molecules, sites or subunits per partner or assembly. “Trastuzumab (Herceptin), free monoclonal antibody” yielded a dH of -105 kcal/mol and a stoichiometry N of 2.78.
